According to patent US20110182887A1 (AstraZeneca / MedImmune, published 2011):

Key:
[1] = biological target: T1, human CD22 (hCD22) expressed on the cell surface (human, UniProt P20273 20-847); assay: cell ELISA on BHK cells expressing human CD22, OD 655 nm
T1 construct: whole, on cells; One molecule is used for all cell-surface formats; also called human CD22 antigen; BHK-CD22

[2] = biological target: T1, human CD22 (hCD22) expressed on the …; assay: as above; remark: listed apart in the source
[3] = biological target: T1, human CD22 (hCD22) expressed on the …; assay: cell ELISA on BHK cells expressing human CD22, COS-7 supernatant, goat anti-human Ig-HRP, OD 450 nm
Text: (§1) The BHK-CD22 binding assay was used to test the binding activity of the chHB227 antibody in the transiently transformed COS 7 culture supernatants. A goat anti-human Ig-HRP conjugate (Sigma Chemicals) was used to detect binding of chHB22.7 mAb while a goat anti-mouse Ig-HRP conjugate (Southern Biotechnology) was used to detect binding of the parental mouse HB22.7 mAb. The bound HRP conjugates were exposed to the substrate o-phenyldiamine (OPD) and the resulting products detected at 450 nm.

[4] = biological target: T1, human CD22 (hCD22) expressed on the …; assay: cell ELISA on BHK cells expressing human CD22, OD 655 nm; remark: listed apart in the source
[5] = biological target: T1, human CD22 (hCD22) expressed on the …; assay: cell ELISA on BHK cells expressing human CD22, COS-7 supernatant, OD 655 nm
[6] = biological target: T1, human CD22 (hCD22) expressed on the …; assay: as above; remark: listed apart in the source
[7] = biological target: T1, human CD22 (hCD22) expressed on the …; assay: BHK-CD22 cell ELISA, COS-7 supernatant
[8] = biological target: T1, human CD22 (hCD22) expressed on the …; assay: cell ELISA on BHK cells expressing human CD22, COS-7 supernatant, OD 655 nm; remark: listed apart in the source
[9] = biological target: hCD22 (ligand immobilised on the BIAcore CM5 sensor chip) (human, UniProt P20273 20-687, limits assumed); assay: SPR (BIAcore 3000), hCD22 immobilised on CM5 chip, IgG injected, 1:1 model
Protocol: Binding affinity of HB22.7 and RHOv2ACD/RKA were determined on a BIAcore 3000 instrument (BIAcore, Inc., Uppsala, Sweden). The ligand, hCD22, was prepared at 50 nM in 10 mM NaOAc, pH4 buffer. It was injected onto an EDC/NHS-activated CM5 sensor chip (BIAcore, Inc. Uppsala, Sweden) using a standard immobilization protocol. Following this, any unreacted active ester moieties were quenched using 1M Et-NH2 (ethanolamine; coupling reagents purchased from BIAcore, Inc.). A total of 535 and 689 RUs hCD22 remained bound to two sensor chip surfaces used in these experiments. Separately, a blank surface was prepared on each sensor chip using the identical protocol (minus protein). The blank surfaces were used as a reference cell in the experiments, and served to correct for both non-specific binding and some housekeeping artifacts.
For the kinetic experiments, HB22.7 and RHOv2ACD/RKA were prepared as two dilution series, starting at 22 nM and 100 nM, then diluted three- and two-fold, respectively, down to final concentrations of 0.03 nM and 0.39 nM in HBS-EP buffer (BIAcore, Inc., consisting of the following: 10 mM HEPES buffer, pH7.4, 150 mM NaCl, 3 mM EDTA, and 0.005% P20). Each concentration of IgG was then injected over both the CD22 and reference cell surfaces, which are connected in series. Between injections, surfaces were regenerated with a 1-minute injection of 3M MgCl2.

[10] = biological target: T1, human CD22 (hCD22) expressed on the …; assay: cell ELISA on BHK cells expressing human CD22, goat anti-mouse Ig-HRP, OD 450 nm
Text: as §1

[11] = biological target: T1, human CD22 (hCD22) expressed on the …; assay: competitive cell ELISA on CD22; increasing mouse HB22.7 mixed with 250 ng/ml chHB227 (competitor); mouse HB22.7 titrated against 250 ng/ml chimeric antibody
Protocol: To confirm the binding effectiveness of the RHF+RKC humanized antibody, a competitive ELISA was performed with increasing amounts of the mouse HB22.7 antibody mixed with 250 ng/ml of chimeric or humanized antibody.

[12] = biological target: T1, human CD22 (hCD22) expressed on the …; assay: flow cytometry on CHO cells transfected with human CD22, labelled secondary antibody, median fluorescence intensity
Protocol: CHO cells expressing hCD22 were prepared by transfection with a plasmid encoding human CD22 using the Lipofectamine procedure. […] Cells were incubated on ice for 20 minutes then washed and resuspended in PBS followed by addition of secondary antibody, either a goat anti-human (GAH) or GAM-F(ab)′2 anti human-RPE at a 1:1000 dilution. Cells were incubated on ice for an additional 10 minutes and binding activity was evaluated via FACS analysis on a Guava flow cytometer.

[13] = biological target: T1, human CD22 (hCD22) expressed on the …; assay: cell ELISA on BHK cells expressing human CD22, RHOv2A heavy chain expressed with the RKC light chain in COS cells
[14] = biological target: T1, human CD22 (hCD22) expressed on the …; assay: cell ELISA on BHK cells expressing human CD22, OD 655 nm; remark: listed apart in the source
[15] = biological target: T1, human CD22 (hCD22) expressed on the …; assay: cell ELISA on BHK cells expressing human CD22, RHOv2B heavy chain expressed with the RKC light chain in COS cells
[16] = biological target: T1, human CD22 (hCD22) expressed on the …; assay: cell ELISA on BHK cells expressing human CD22, RHOv2C heavy chain expressed with the RKC light chain in COS cells
[17] = biological target: T1, human CD22 (hCD22) expressed on the …; assay: cell ELISA on BHK cells expressing human CD22, RHOv2D heavy chain expressed with the RKC light chain in COS cells
[18] = biological target: T1, human CD22 (hCD22) expressed on the …; assay: cell ELISA on BHK cells expressing human CD22, RHOv2 heavy chain expressed with the RKC light chain in COS cells

B1: chimeric HB22.7 antibody chHB227 (chH + chL) (antibody, V domains shown)
VH: QVQLKESGPGLVAPSQSLSITCTVSGFSLSDYGVNWVRQIPGKGLEWLGIIWGDGRTDYNSALKSRLNISKDNSKSQVFLKMNSLKADDTARYYCARAPGNRAMEYWGQGTSVTVS
VL: SIVMTQTPKFLLVSAGDRITLTCKASQSVTNDVAWYQQKPGQSPKLLIYYASNRYTGVPDRFTGSGYGTDFTFTISTVQAEDLAVYFCQQDYRSPWTFGGGTKLEI
notes: Tested as COS-7 supernatant; also called CH+CK; fully chimeric antibody
In the case of B1, the “EC50 (read off the curve)” value [1] is reported as roughly 0.3 µg/mL, the “EC50 (read off the curve)” value [2] is reported as roughly 0.3 µg/mL and the “EC50 (read off the curve)” value [3] is reported as roughly 0.1 µg/mL. The “EC50 (read off the curve)” value [4] was roughly 0.3 µg/mL, the “EC50 (read off the curve)” value [5] was roughly 0.1 µg/mL and the “EC50 (read off the curve)” value [6] was roughly 0.1 µg/mL.

B2: HB227RHC heavy chain + chimeric HB22.7 light chain (chL) (antibody, human IgG1, V domains shown)
VH: QVQLQESGPALVKPTQTLTLTCTFSGFSLSDYGVNWIRQPPGKALEWLGIIWGDGRTDYNSALKSRLSISKDNSKNQVVLRMTNVDPVDTATYFCARAPGNRAMEYWGQGTVVTVSS
VL: SIVMTQTPKFLLVSAGDRITLTCKASQSVTNDVAWYQQKPGQSPKLLIYYASNRYTGVPDRFTGSGYGTDFTFTISTVQAEDLAVYFCQQDYRSPWTFGGGTKLEI
notes: Human IgG1 kappa, COS-7 supernatant; The VH entry may include the leader; also called RHC+chL
With B2 the “fold better binding than HB227RHB with the same chimeric light chain” value [7] was roughly 2 fold.

B3: HB227RHB heavy chain + chimeric HB22.7 light chain (chL) (antibody, human IgG1, V domains shown)
VH: QVQLQESGPALVKPTQTLTLTCTFSGFSLSDYGVNWIRQPPGKALEWLAIIWGDGRTDYNSALKSRLSISKDTSKNQVVLRMTNVDPVDTATYFCARAPGNRAMEYWGQGTVVTVSS
VL: SIVMTQTPKFLLVSAGDRITLTCKASQSVTNDVAWYQQKPGQSPKLLIYYASNRYTGVPDRFTGSGYGTDFTFTISTVQAEDLAVYFCQQDYRSPWTFGGGTKLEI
notes: Human IgG1 kappa, COS-7 supernatant; The VH entry may include the leader; also called RHB+chL
B3: binds [8].

B4: parental mouse monoclonal anti-CD22 antibody HB22.7 (antibody, V domains shown)
VH: QVQLKESGPGLVAPSQSLSITCTVSGFSLSDYGVNWVRQIPGKGLEWLGIIWGDGRTDYNSALKSRLNISKDNSKSQVFLKMNSLKADDTARYYCARAPGNRAMEYWGQGTSVTVS
VL: SIVMTQTPKFLLVSAGDRITLTCKASQSVTNDVAWYQQKPGQSPKLLIYYASNRYTGVPDRFTGSGYGTDFTFTISTVQAEDLAVYFCQQDYRSPWTFGGGTKLEI
notes: Mouse antibody from hybridoma ATCC HB11347; It was labelled with Alexa-fluor in some cell assays; also called mouse HB22.7; murine HB22.7
B4 was tested, and the Kd [9] was 14 nM, the koff [9] was 0.00017 s⁻¹ and the kon [9] was 12000 M⁻¹ s⁻¹. For the same binder, the “EC50 (read off the curve)” value [10] was roughly 0.09 µg/mL, the IC50 [11] was roughly 4 µg/mL and the “EC50 (read off the curve)” value [12] was roughly 0.2 ug mAb per 10e6 cells.

B5: HB227RHOv2A + HB227RKC humanized antibody (antibody, human IgG1, V domains shown)
VH: QVQLEESGGGVVRPGRSLRLSCAASGFTFSDYGVNWIRQAPGKGLEWVGIIWGDGRTDYNSALKSRLTVSRNNSNNTLSLQMNSLTTEDTAVYYCVRAPGNRAMEYWGQGVLVTVS
VL: DIVMTQSPSSLSASVGDRVTITCKASQSVTNDVAWYQQKPGKAPKLLIYYASNRYTGVPDRFSGSGYGTDFTLTISSLQPEDFATYFCQQDYRSPWTFGGGTKVEIKR
notes: RHOv2 with the F29L back mutation removed; Human IgG1 kappa, COS-7 supernatant; also called HB227v2A
B5: binds [13].

B6: HB227RHOv2ABCD + HB227RKC humanized antibody (antibody, human IgG1, V domains shown)
VH: QVQLEESGGGVVRPGRSLRLSCAASGFTFDDYGVNWIRQAPGKGLEWVTIIWGDGRTDYNSALKSRFTVSRNNSNNTLSLQMNSLTTEDTAVYYCVRAPGNRAMEYWGQGVLVTVS
VL: DIVMTQSPSSLSASVGDRVTITCKASQSVTNDVAWYQQKPGKAPKLLIYYASNRYTGVPDRFSGSGYGTDFTLTISSLQPEDFATYFCQQDYRSPWTFGGGTKVEIKR
notes: No VH back mutations; Human IgG1 kappa, COS-7 supernatant; also called RHOv2ABCD+RKC
B6: binds [14].

B7: HB227RHOv2B + HB227RKC humanized antibody (antibody, human IgG1, V domains shown)
VH: QVQLEESGGGVVRPGRSLRLSCAASGFTLDDYGVNWIRQAPGKGLEWVGIIWGDGRTDYNSALKSRLTVSRNNSNNTLSLQMNSLTTEDTAVYYCVRAPGNRAMEYWGQGVLVTVS
VL: DIVMTQSPSSLSASVGDRVTITCKASQSVTNDVAWYQQKPGKAPKLLIYYASNRYTGVPDRFSGSGYGTDFTLTISSLQPEDFATYFCQQDYRSPWTFGGGTKVEIKR
notes: RHOv2 with the D30S back mutation removed; Human IgG1 kappa, COS-7 supernatant; also called HB227v2B
B7: binds [15].

B8: HB227RHOv2C + HB227RKC humanized antibody (antibody, human IgG1, V domains shown)
VH: QVQLEESGGGVVRPGRSLRLSCAASGFTLSDYGVNWIRQAPGKGLEWVTIIWGDGRTDYNSALKSRLTVSRNNSNNTLSLQMNSLTTEDTAVYYCVRAPGNRAMEYWGQGVLVTVS
VL: DIVMTQSPSSLSASVGDRVTITCKASQSVTNDVAWYQQKPGKAPKLLIYYASNRYTGVPDRFSGSGYGTDFTLTISSLQPEDFATYFCQQDYRSPWTFGGGTKVEIKR
notes: RHOv2 with the T49G back mutation removed; Human IgG1 kappa, COS-7 supernatant; also called HB227v2C
B8: binds [16].

B9: HB227RHOv2D + HB227RKC humanized antibody (antibody, human IgG1, V domains shown)
VH: QVQLEESGGGVVRPGRSLRLSCAASGFTLSDYGVNWIRQAPGKGLEWVGIIWGDGRTDYNSALKSRFTVSRNNSNNTLSLQMNSLTTEDTAVYYCVRAPGNRAMEYWGQGVLVTVS
VL: DIVMTQSPSSLSASVGDRVTITCKASQSVTNDVAWYQQKPGKAPKLLIYYASNRYTGVPDRFSGSGYGTDFTLTISSLQPEDFATYFCQQDYRSPWTFGGGTKVEIKR
notes: RHOv2 with the F67L back mutation removed; Human IgG1 kappa, COS-7 supernatant; also called HB227v2D
B9: binds [17].

B10: HB227RHOv2 + HB227RKC humanized antibody (antibody, human IgG1, V domains shown)
VH: QVQLEESGGGVVRPGRSLRLSCAASGFTLSDYGVNWIRQAPGKGLEWVGIIWGDGRTDYNSALKSRLTVSRNNSNNTLSLQMNSLTTEDTAVYYCVRAPGNRAMEYWGQGVLVTVS
VL: DIVMTQSPSSLSASVGDRVTITCKASQSVTNDVAWYQQKPGKAPKLLIYYASNRYTGVPDRFSGSGYGTDFTLTISSLQPEDFATYFCQQDYRSPWTFGGGTKVEIKR
notes: Human IgG1 kappa, COS-7 supernatant; Carries all four VH back mutations: F29L, D30S, T49G, F67L; also called RHOv2+RKC
B10: binds [18].
